The labels stand for the following.
B1: target 1 U19C,C22U (mixed)
RNA 1: CACCCGUGCAAAAAUGCAGGGGUCUAAAACUGAGCGGAUAACCUCUCUAUGG
RNA 2: GGGAAUGGAUCCACAUCUACGAAUUCGUAUCACAGAGAGGUUAUCCGCUCACCGAGAUCGGAAGAGCACACGU
B2: target 1 insG 3' of 4,insG 3' of 4 (mixed)
RNA 1: CACCCGUGCAAAAAUGCAGGGGUCUAAAACUGAGCGGAUAACCUCUCUAUGG
RNA 2: GGGAAUGGAUCCACAUCUACGAAUUCGUACCAUAGAGAGGUUAUCCGCGGUCACCGAGAUCGGAAGAGCACACGU
B3: target 1 insG 3' of 10,insC 3' of 9 (mixed)
RNA 1: CACCCGUGCAAAAAUGCAGGGGUCUAAAACUGAGCGGAUAACCUCUCUAUGG
RNA 2: GGGAAUGGAUCCACAUCUACGAAUUCGUACCAUAGAGAGGUUGACUCCGCUCACCGAGAUCGGAAGAGCACACGU
B4: target 1 insA 3' of 5 (mixed)
RNA 1: CACCCGUGCAAAAAUGCAGGGGUCUAAAACUGAGCGGAUAACCUCUCUAUGG
RNA 2: GGGAAUGGAUCCACAUCUACGAAUUCGUACCAUAGAGAGGUUAUCCGACUCACCGAGAUCGGAAGAGCACACGU
B5: target 1 insC 3' of 13,insG 3' of 1 (mixed)
RNA 1: CACCCGUGCAAAAAUGCAGGGGUCUAAAACUGAGCGGAUAACCUCUCUAUGG
RNA 2: GGGAAUGGAUCCACAUCUACGAAUUCGUACCAUAGAGAGCGUUAUCCGCUCAGCCGAGAUCGGAAGAGCACACGU
B6: target 1 insU 3' of 20,insU 3' of 20 (mixed)
RNA 1: CACCCGUGCAAAAAUGCAGGGGUCUAAAACUGAGCGGAUAACCUCUCUAUGG
RNA 2: GGGAAUGGAUCCACAUCUACGAAUUCGUACCAUUUAGAGAGGUUAUCCGCUCACCGAGAUCGGAAGAGCACACGU
B7: target 1 A1U,U8C (mixed)
RNA 1: CACCCGUGCAAAAAUGCAGGGGUCUAAAACUGAGCGGAUAACCUCUCUAUGG
RNA 2: GGGAAUGGAUCCACAUCUACGAAUUCGUACCAUAGAGAGGUUACCCGCUCUCCGAGAUCGGAAGAGCACACGU
B8: target 1 insC 3' of 13,insU 3' of 1 (mixed)
RNA 1: CACCCGUGCAAAAAUGCAGGGGUCUAAAACUGAGCGGAUAACCUCUCUAUGG
RNA 2: GGGAAUGGAUCCACAUCUACGAAUUCGUACCAUAGAGAGCGUUAUCCGCUCAUCCGAGAUCGGAAGAGCACACGU
B9: target 1 insG 3' of 18,insA 3' of 11 (mixed)
RNA 1: CACCCGUGCAAAAAUGCAGGGGUCUAAAACUGAGCGGAUAACCUCUCUAUGG
RNA 2: GGGAAUGGAUCCACAUCUACGAAUUCGUACCAUAGGAGAGGUAUAUCCGCUCACCGAGAUCGGAAGAGCACACGU
B10: target 1 insC 3' of 13,insA 3' of 2 (mixed)
RNA 1: CACCCGUGCAAAAAUGCAGGGGUCUAAAACUGAGCGGAUAACCUCUCUAUGG
RNA 2: GGGAAUGGAUCCACAUCUACGAAUUCGUACCAUAGAGAGCGUUAUCCGCUCAACCGAGAUCGGAAGAGCACACGU
B11: target 1 A1U,U11A (mixed)
RNA 1: CACCCGUGCAAAAAUGCAGGGGUCUAAAACUGAGCGGAUAACCUCUCUAUGG
RNA 2: GGGAAUGGAUCCACAUCUACGAAUUCGUACCAUAGAGAGGAUAUCCGCUCUCCGAGAUCGGAAGAGCACACGU
B12: target 1 U8C (mixed)
RNA 1: CACCCGUGCAAAAAUGCAGGGGUCUAAAACUGAGCGGAUAACCUCUCUAUGG
RNA 2: GGGAAUGGAUCCACAUCUACGAAUUCGUACCAUAGAGAGGUUACCCGCUCACCGAGAUCGGAAGAGCACACGU
B13: target 1 insG 3' of 19,insU 3' of 4 (mixed)
RNA 1: CACCCGUGCAAAAAUGCAGGGGUCUAAAACUGAGCGGAUAACCUCUCUAUGG
RNA 2: GGGAAUGGAUCCACAUCUACGAAUUCGUACCAUGAGAGAGGUUAUCCGCUUCACCGAGAUCGGAAGAGCACACGU
B14: target 1 A1C,U8C (mixed)
RNA 1: CACCCGUGCAAAAAUGCAGGGGUCUAAAACUGAGCGGAUAACCUCUCUAUGG
RNA 2: GGGAAUGGAUCCACAUCUACGAAUUCGUACCAUAGAGAGGUUACCCGCUCCCCGAGAUCGGAAGAGCACACGU
B15: target 1 C6A,G13A (mixed)
RNA 1: CACCCGUGCAAAAAUGCAGGGGUCUAAAACUGAGCGGAUAACCUCUCUAUGG
RNA 2: GGGAAUGGAUCCACAUCUACGAAUUCGUACCAUAGAGAAGUUAUCAGCUCACCGAGAUCGGAAGAGCACACGU
B16: target 1 C6G,U11G (mixed)
RNA 1: CACCCGUGCAAAAAUGCAGGGGUCUAAAACUGAGCGGAUAACCUCUCUAUGG
RNA 2: GGGAAUGGAUCCACAUCUACGAAUUCGUACCAUAGAGAGGGUAUCGGCUCACCGAGAUCGGAAGAGCACACGU
B17: target 1 G5A,U8G (mixed)
RNA 1: CACCCGUGCAAAAAUGCAGGGGUCUAAAACUGAGCGGAUAACCUCUCUAUGG
RNA 2: GGGAAUGGAUCCACAUCUACGAAUUCGUACCAUAGAGAGGUUAGCCACUCACCGAGAUCGGAAGAGCACACGU
B18: target 1 del3,del17 (mixed)
RNA 1: CACCCGUGCAAAAAUGCAGGGGUCUAAAACUGAGCGGAUAACCUCUCUAUGG
RNA 2: GGGAAUGGAUCCACAUCUACGAAUUCGUACCAUAAGAGGUUAUCCGCCACCGAGAUCGGAAGAGCACACGU
B19: target 1 G5C,U19G (mixed)
RNA 1: CACCCGUGCAAAAAUGCAGGGGUCUAAAACUGAGCGGAUAACCUCUCUAUGG
RNA 2: GGGAAUGGAUCCACAUCUACGAAUUCGUACCAGAGAGAGGUUAUCCCCUCACCGAGAUCGGAAGAGCACACGU
B20: target 1 A1G,U8C (mixed)
RNA 1: CACCCGUGCAAAAAUGCAGGGGUCUAAAACUGAGCGGAUAACCUCUCUAUGG
RNA 2: GGGAAUGGAUCCACAUCUACGAAUUCGUACCAUAGAGAGGUUACCCGCUCGCCGAGAUCGGAAGAGCACACGU
B21: target 1 insA 3' of 19,insG 3' of 8 (mixed)
RNA 1: CACCCGUGCAAAAAUGCAGGGGUCUAAAACUGAGCGGAUAACCUCUCUAUGG
RNA 2: GGGAAUGGAUCCACAUCUACGAAUUCGUACCAUAAGAGAGGUUAUGCCGCUCACCGAGAUCGGAAGAGCACACGU
B22: target 1 insU 3' of 12,insA 3' of 12 (mixed)
RNA 1: CACCCGUGCAAAAAUGCAGGGGUCUAAAACUGAGCGGAUAACCUCUCUAUGG
RNA 2: GGGAAUGGAUCCACAUCUACGAAUUCGUACCAUAGAGAGGUAUUAUCCGCUCACCGAGAUCGGAAGAGCACACGU
B23: target 1 insC 3' of 13,insC 3' of 1 (mixed)
RNA 1: CACCCGUGCAAAAAUGCAGGGGUCUAAAACUGAGCGGAUAACCUCUCUAUGG
RNA 2: GGGAAUGGAUCCACAUCUACGAAUUCGUACCAUAGAGAGCGUUAUCCGCUCACCCGAGAUCGGAAGAGCACACGU

The series addresses T1, EsCas13d, nuclease-dead (Eubacterium siraeum, UniProt B0MS50, R295A;H300A;R849A;H854A).
T1 sequence: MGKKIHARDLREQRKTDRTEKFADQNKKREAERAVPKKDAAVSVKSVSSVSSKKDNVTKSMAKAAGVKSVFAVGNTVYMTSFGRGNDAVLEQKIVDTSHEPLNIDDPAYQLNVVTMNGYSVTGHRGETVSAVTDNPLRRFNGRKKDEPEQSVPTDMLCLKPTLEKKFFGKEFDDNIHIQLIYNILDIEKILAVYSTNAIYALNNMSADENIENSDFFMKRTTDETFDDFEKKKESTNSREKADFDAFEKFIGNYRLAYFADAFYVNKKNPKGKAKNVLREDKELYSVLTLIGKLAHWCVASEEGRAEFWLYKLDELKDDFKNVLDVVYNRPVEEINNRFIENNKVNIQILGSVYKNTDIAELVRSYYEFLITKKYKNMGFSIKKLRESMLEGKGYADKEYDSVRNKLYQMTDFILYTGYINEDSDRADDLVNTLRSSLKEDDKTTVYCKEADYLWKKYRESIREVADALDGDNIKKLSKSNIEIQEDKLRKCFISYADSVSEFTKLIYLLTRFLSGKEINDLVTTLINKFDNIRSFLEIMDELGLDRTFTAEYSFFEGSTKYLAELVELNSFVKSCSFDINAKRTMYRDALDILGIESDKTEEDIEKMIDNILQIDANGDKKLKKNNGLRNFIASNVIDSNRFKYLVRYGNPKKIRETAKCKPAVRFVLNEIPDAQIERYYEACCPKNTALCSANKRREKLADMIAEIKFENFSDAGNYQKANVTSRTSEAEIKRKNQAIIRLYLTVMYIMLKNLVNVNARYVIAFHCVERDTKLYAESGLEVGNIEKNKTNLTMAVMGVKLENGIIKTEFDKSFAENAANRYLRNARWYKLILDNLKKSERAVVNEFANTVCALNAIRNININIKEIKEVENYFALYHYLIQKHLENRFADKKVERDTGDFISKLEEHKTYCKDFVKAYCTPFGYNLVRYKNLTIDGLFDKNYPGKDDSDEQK
Kind of series: crRNA (strand 1, pre-loaded); Mg2+; 40 mM Tris-HCl pH 7.5, 150 mM NaCl, 6 mM MgCl2, 1 mM DTT, 0.1% Tween-20, 0.2 mg/ml BSA; 25 C; 10 min per concentration, then washed. The settings on record: tags: His6-TwinStrep-SUMO cleaved; N-terminal SNAP kept (SNAP-Surface 488); label: 3' end held by stalled T7 RNA polymerase.
Turning to B1, binding was put at a Kd of 45 ± 6 nM.

With B2, the affinity, expressed as Kd, was 5.72 ± 0.26 nM. To B3 belongs 14.9 ± 0.6 nM. As for B4, the Kd stood at 6.2 ± 0.4 nM. As for B5, binding was put at a Kd of 9.17 ± 0.3 nM.

The molecule B6 had a Kd of 13.5 ± 1 nM.

In turn, B7 displayed a Kd of 11.2 ± 0.5 nM. Take B8: the Kd worked out at 11.5 ± 1.1 nM. With B9 the figure was 89 ± 11 nM; with B10, 9 ± 0.5 nM; with B11, 37.8 ± 3 nM. With B12 the figure was 11.2 ± 0.4 nM. With B13 the figure was 53 ± 6 nM; with B14, 8.1 ± 0.4 nM. As to B15, binding was characterised by a dissociation constant (Kd) of 6.6 ± 0.4 nM. In turn, B16 came in with a Kd of 9.6 ± 0.5 nM. In turn, B17 came in with a Kd of 38 ± 2.4 nM. In turn, B18 came in with a Kd of 67 ± 17 nM. Regarding B19, binding was put at a Kd of 30 ± 4 nM.

Molecule B20 gave a Kd of 10.2 ± 0.9 nM.

B21: the Kd came out at 32.7 ± 2.3 nM.

Take B22: the Kd stood at 10.1 ± 0.5 nM. Take B23: the affinity, expressed as Kd, was 8.9 ± 0.6 nM.

A word on the Kd: it is the constant that tells how readily two partners part at equilibrium.

The values are drawn from publication PMC10786891, “Massively parallel profiling of RNA-targeting CRISPR-Cas13d”.
